From patent US10350158B2, “2′ fluoro-modified RNAs as immunostimulators” (DUKE UNIVERSITY, priority 2013, dated 2019)
Strand notation (5' to 3'): a small letter for the sugar, then the base; units joined by * are phosphorothioate-linked, units joined directly phosphodiester-linked; [ ] holds rarer units or linkages, { } end groups; capitals alone tell only the bases. {ppp} = triphosphate; r = 2'-OH (RNA); f = 2'-fluoro

Legend:
WM266.4 cells = assay: Cellular stability of transfected RNA by RT-PCR; format: in vitro ADME, human; conditions: 4, 8, 12 and 24 h after transfection
Procedure: FIG. 6A-FIG. 6D are a set of graphs showing that 2′F modification increases nuclease resistance, cytotoxicity and inflammatory cytokine induction of immunostimulatory 5′ppp ssRNAs. FIG. 6A is a graph showing ability of various modified ssRNAs to inhibit the growth of cells over concentration ranges. WM266-4 cells were treated with transfection reagent alone (mock) or the complex of transfection reagent and 5′ppp 10F containing 2′F pyrimidine, 2′OMe pyrimidine or unmodified pyrimidine (2′OH) at various concentrations. The viral dsRNA analog PolyI:C was used as an experimental control. Growth inhibition was assessed at 72 h post treatments using the MTT assay. FIG. 6B is a set of graphs showing cytokine induction after treatment with the indicated ssRNAs. WM266-4 cells were either treated with transfection reagent alone (mock) or the complex of transfection reagent and 5′ppp 2′OH 10F, 5′ppp 2′F 10F, 5′ppp 2′OMe 10F or poly I:C (0.5 μg/ml each). The secretion of IFNβ and IL-8 by the melanoma cells was analyzed at 24 h after treatment by ELISA. The data represent the mean of three experiments. Error bars represent the S.D.; *P<0.05 (5′ppp 2′F 10F vs 5′ppp 2′OH 10F); P<0.001 (5′ppp 2′OMe 10F vs 5′ppp 2′OH 10F). […] RNAs were analyzed on 12% polyacrylamide gels. […] At 4 h, 8, 12 and 24 h after transfection, total RNAs were isolated and cellular 10F RNA levels were analyzed by RT-PCR. […]

human TLR3 = target: T1, human TLR3 (Homo sapiens, UniProt O15455); assay: HEK-hTLR3-NFκB/SEAP reporter assay; format: cell-based; conditions: QUANTI-BLUE
T1 construct: host or cells: HEK293 (HEK-hTLR3-NFκB/SEAP)
Procedure: The human TLR3 reporter cell, HEK-hTLR3-NFκB/SEAP was purchased from Invivogen. These cells were stably co-transfected with the human TLR3 gene and an inducible SEAP (secreted embryonic alkaline phosphatase) reporter gene into HEK293 cells. The SEAP gene is placed under the control of NF-κB and AP-1. […] SEAP gene expression was measured using the SEAP detection media QUANTI-BLUE (Invivogen), according to the manufacturer's instructions. FIG. 3B is a graph showing that TLR7 is not stimulated by the ssRNAs. Human TLR7-expressing HEK293 cells were kindly provided by Dr. Todd Brennan (Duke University, Durham, N.C.). Treatment with R848 but not with polyI:C, polyI:C-DF and 5′ppp 2′F 10F-DF complexes stimulated HEK-TLR7 cells to produce the inflammatory cytokine IL-8. The data represent the mean of two experiments. Error bars represent the S.D.

T1 sequence (O15455 24-904): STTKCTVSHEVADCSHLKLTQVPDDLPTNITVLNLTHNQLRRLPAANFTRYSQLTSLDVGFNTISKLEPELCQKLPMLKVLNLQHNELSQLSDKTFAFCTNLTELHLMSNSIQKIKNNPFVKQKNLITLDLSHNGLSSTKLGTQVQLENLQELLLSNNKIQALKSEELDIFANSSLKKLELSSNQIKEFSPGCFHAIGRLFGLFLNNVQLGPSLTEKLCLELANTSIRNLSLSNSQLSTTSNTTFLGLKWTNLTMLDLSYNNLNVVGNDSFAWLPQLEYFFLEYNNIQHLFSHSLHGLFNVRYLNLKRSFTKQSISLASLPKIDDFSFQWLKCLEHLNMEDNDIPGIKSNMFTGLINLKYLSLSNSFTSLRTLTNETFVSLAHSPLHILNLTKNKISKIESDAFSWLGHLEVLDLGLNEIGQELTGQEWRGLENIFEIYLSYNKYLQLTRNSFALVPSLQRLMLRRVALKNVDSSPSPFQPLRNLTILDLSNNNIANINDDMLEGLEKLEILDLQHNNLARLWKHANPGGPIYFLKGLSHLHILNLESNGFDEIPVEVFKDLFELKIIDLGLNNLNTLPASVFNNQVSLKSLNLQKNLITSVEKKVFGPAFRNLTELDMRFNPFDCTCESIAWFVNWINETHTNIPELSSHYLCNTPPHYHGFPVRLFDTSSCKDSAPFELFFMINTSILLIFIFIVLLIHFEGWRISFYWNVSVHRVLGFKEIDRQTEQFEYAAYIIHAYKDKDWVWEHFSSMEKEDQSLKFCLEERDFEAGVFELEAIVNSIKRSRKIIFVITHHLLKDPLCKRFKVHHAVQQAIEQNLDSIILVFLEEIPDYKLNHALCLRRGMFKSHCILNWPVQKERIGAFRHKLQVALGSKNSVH

B1: 10F: 5′ppp 2′F pyrimidine ssRNA aptamer, 71 nt, human melanocytic cell-targeting, SEQ ID NO: 4 (nucleic acid)
chain: {ppp}-rGrGrGrArGrGrAfCrGrAfUrGfCrGrGfUrAfCfCfUrGrAfCrArGfCrAfUfCfUfUrGrAfUrArAfUrGrGfUfCfCfUrAfCrGrGrArGfCfCrGfUfUfCfCrArGrAfCrGrAfCfUfCrGfCfCfCrGrA
cellular stability compared to unmodified RNAs (WM266.4 cells): improve cellular stability
stimulation of TLR3 reporter cells (SEAP) (human TLR3): not
